Here are results for 1 molecule from publication PMC5835112.

For the data set, the target named is CsrA (Yersinia pseudotuberculosis, UniProt B1JJ99 1-61). Nature of the data set: analytical SEC; 50 uM CsrA, 25 uM RNA. The following applies: protein: recombinant; tags: His6 (pET28a); chain copies: 2; hairpin (predicted).
Sequence of CsrA (B1JJ99 whole entry): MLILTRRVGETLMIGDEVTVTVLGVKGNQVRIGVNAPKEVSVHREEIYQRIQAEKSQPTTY

Turning to CUUUCACUUUCUUAACAUGAUACAGGAGGGCUUAUG (structured_RNA) [urease SD RNA (Pure-CsrA RNA)], the binding result is given as “binds”.
